In patent US8835379B2, “Derivatives of CGRP” (Novo Nordisk A/S, priority 2009, dated 2014):
*1 amine or outer side, *2 acyl side, *3 side chain or, on linkers, in order; H or OH if unused. Bridges are numbered along the chain shown (N, C = ends). Where no end group is shown, it is not given here. Side-chain parts run from the residue outwards. The star is where a group is joined. C18 diacid = O=C(O)CCCCCCCCCCCCCCCCC(=O)*; γGlu = O=C(O)[C@H](CCC(=O)[*:2])N[*:1]; AEEA = NCCOCCOCC(=O)O

B1: human alpha-CGRP acylated at position 25 (peptide)
peptide: ACDTATCVTHRLAGLLSRSGGVVKKNFVPTNVGSKAF
modifications: position 25 (printed X) = N-ε-{2-(2-{2-[2-(2-{2-[4-carboxy-4-(17-carboxyheptadecanoylamino)butyrylamino]ethoxy}ethoxy)-acetylamino]ethoxy}ethoxy)acetyl})-L-lysine; Cys2 and Cys7 are cyclised with a disulfide bond

Target: CGRP receptor: calcitonin receptor-like receptor (CRLR) with receptor activity modifying protein-1 (RAMP1), stably transfected in Chinese hamster ovary (CHO) cells together with CRE luciferase
Experiment: cell-based or functional assay
Details: not given

Row | Molecule | EC50, pM (in vitro potency; CGRP-induced cAMP accumulation in CGRP receptor expressing cells, CRE luciferase) [pM] | pEC50-ratio relative to human alpha-CGRP
1 | rat CGRP-beta (from UniProt P10093 89-125) (peptide) | 9 | –
2 | ACDTATCVTHRLAGLLSRSGGVVKNNFK([AEEA-AEEA-γGlu-C18 diacid])PTNVGSKAF (disulfide 2-7; ends not checked) [human alpha-CGRP acylated at position 28] | – | 0.62
3 | ACDTATCVTHRLAGLLSRSGGVVKNNFVK([AEEA-AEEA-γGlu-C18 diacid])TNVGSKAF (disulfide 2-7; ends not checked) [human alpha-CGRP acylated at position 29] | – | 0.41
4 | ACDTATCVTHRLAGLLSRSGGVVKNNFVPTK([AEEA-AEEA-γGlu-C18 diacid])VGSKAF (disulfide 2-7; ends not checked) [human alpha-CGRP acylated at position 31] | – | 0.44
5 | ACDTATCVTHRLAGLLSRSGGVVKNK([AEEA-AEEA-γGlu-C18 diacid])FVPTNVGSKAF (disulfide 2-7; ends not checked) [human alpha-CGRP acylated at position 26] | – | 0.38
6 | SCNTATCVTHRLAGLLSRSGGVVKDNFVPTNVGSEAF (peptide, UniProt P01256 83-119, looked up, disulfide 2-7; ends not checked) [rat CGRP-alpha] | 5 | –
7 | B1 | – | 0.23
8 | ACDK([AEEA-AEEA-γGlu-C18 diacid])ATCVTHRLAGLLSRSGGVVKNNFVPTNVGSKAF (disulfide 2-7; ends not checked) [human alpha-CGRP acylated at position 4] | – | 0.15
9 | ACDTATCVTHK([AEEA-AEEA-γGlu-C18 diacid])LAGLLSRSGGVVKNNFVPTNVGSKAF (disulfide 2-7; ends not checked) [human alpha-CGRP acylated at position 11] | – | 0.28
10 | ACK([AEEA-AEEA-γGlu-C18 diacid])TATCVTHRLAGLLSRSGGVVKNNFVPTNVGSKAF (disulfide 2-7; ends not checked) [human alpha-CGRP acylated at position 3] | – | 0.14

Target: CGRP receptor (calcitonin receptor-like receptor (CRLR), receptor activity modifying protein-1 (RAMP1)) (Homo sapiens, UniProt O60894+Q16602)
Sequence (Q16602 23-461, species assumed): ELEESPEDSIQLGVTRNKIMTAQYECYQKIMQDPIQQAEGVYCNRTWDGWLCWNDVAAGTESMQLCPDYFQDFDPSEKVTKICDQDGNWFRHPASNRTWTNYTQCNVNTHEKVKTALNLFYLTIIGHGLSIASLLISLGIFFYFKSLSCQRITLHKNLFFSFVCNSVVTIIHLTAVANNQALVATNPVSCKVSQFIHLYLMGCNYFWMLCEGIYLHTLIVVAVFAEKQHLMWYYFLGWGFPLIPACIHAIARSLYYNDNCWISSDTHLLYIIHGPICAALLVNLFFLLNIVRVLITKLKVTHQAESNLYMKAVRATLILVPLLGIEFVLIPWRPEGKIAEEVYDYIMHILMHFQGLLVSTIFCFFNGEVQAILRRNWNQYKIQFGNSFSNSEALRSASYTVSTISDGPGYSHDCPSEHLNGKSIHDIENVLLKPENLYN
Sequence (O60894 27-148, species assumed): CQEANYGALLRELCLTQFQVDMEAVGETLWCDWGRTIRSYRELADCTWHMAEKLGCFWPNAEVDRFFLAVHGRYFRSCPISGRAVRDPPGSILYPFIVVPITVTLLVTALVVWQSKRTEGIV
Experiment: CGRP-induced cAMP accumulation in CGRP receptor expressing cells (CHO, CRE luciferase reporter)
Assay type: cell-based
Details: crude SPOT-synthesised peptides, photo-cleaved, in DMSO; CGRP-1-luc cell line
Experimental: Chinese hamster ovary (CHO) cells were stably transfected with calcitonin receptor-like receptor (CRLR), receptor activity modifying protein-1 (RAMP1) and CRE luciferase (cAMP responsive element for control of luciferase gene expression). Luciferase is a reporter-gene reporting accumulation of intracellular cAMP).
Cells were cultured in F12 media supplemented with GlutaMAX™ (Gibco cat no 31765-027), FBS (10%, Gibco 16140-071), Penicillin-streptomycin (1%, Lonza DE-17-602E), G418 (400 μg/ml, Gibco 10131-027), Blasticidine (10 μg/ml, Corning cat no 15205), Hygromycin (400 μg/ml, Calbiochem cat no 400052).
Cells were seeded in a 96 well plate (Packard #6005180), 20000 cells/well in 100 μl media on the day before experimentation. On the day of experimentation media was replaced by assay medium (Dulbecco's media w/o phenol red (Gibco cat no 11880-028) supplemented with 10% FBS (10%, Gibco 16140-071), Hepes (10 mM, Gibco cat no 15630), GlutaMAX™ (2 mM, Gibco cat no 35050), 50 μl/well.
Peptides were diluted in assay media before added to cells for stimulation, 50 μl/well.
Cells were incubated 5% CO2, 37° C. for 4 hours.
Assay medium and peptides were replaced by phosphate buffered saline (PBS, Gibco cat no 14040-091), 100 μl/well and LucLite™ (PerkinElmer, cat no 6076759), 100 μl/well were added. The plate was sealed before incubation for 30 min at room temperature (21° C.). Luciferase activity (luminescens, 7 s/well) was measured (TopCount®, NXT, Packard).
Dose-response curves were fitted by use of GraphPad Prism software and pEC50 values were calculated. Data were given as mean±SEM, n=2 and each analogue was tested twice.

Row | Molecule | pEC50-ratio relative to human alpha-CGRP, measured by the CGRP-induced cAMP accumulation in CGRP receptor expressing cells
11 | ACDTATCVTHRLAGLLSRSGGVVKNNFVPTXVGSKAF (ACDTATCVTHRLAGLLSRSGGVVKNNFVPTK([AEEA-AEEA-γGlu-C18 diacid])VGSKAF; disulfide 2-7; ends not checked) [Acylation Position 31, human alpha CGRP, position 31 replaced by X, the acylated L-lysine; Cys2-Cys7 disulfide] | 0.44
12 | ACDTATCVTHRLAGLLSRSGGVVKNNFVXTNVGSKAF (ACDTATCVTHRLAGLLSRSGGVVKNNFVK([AEEA-AEEA-γGlu-C18 diacid])TNVGSKAF; disulfide 2-7; ends not checked) [Acylation Position 29, human alpha CGRP, position 29 replaced by X, the acylated L-lysine; Cys2-Cys7 disulfide] | 0.41
13 | ACDTATCVTHRLAGLLSRSGGVVKNNFXPTNVGSKAF (ACDTATCVTHRLAGLLSRSGGVVKNNFK([AEEA-AEEA-γGlu-C18 diacid])PTNVGSKAF; disulfide 2-7; ends not checked) [Acylation Position 28, human alpha CGRP, position 28 replaced by X, the C18 diacid-gamma-Glu-OEG-OEG acylated L-lysine; Cys2-Cys7 disulfide] | 0.62
14 | ACDTATCVTHRLAGLLSRSGGVVKNXFVPTNVGSKAF (ACDTATCVTHRLAGLLSRSGGVVKNK([AEEA-AEEA-γGlu-C18 diacid])FVPTNVGSKAF; disulfide 2-7; ends not checked) [Acylation Position 26, human alpha CGRP, position 26 replaced by X, the acylated L-lysine; Cys2-Cys7 disulfide] | 0.38
15 | ACDTATCVTHRLAGLLSRSGGVVKXNFVPTNVGSKAF (ACDTATCVTHRLAGLLSRSGGVVKKNFVPTNVGSKAF; cyclised or stapled) [Acylation Position 25, human alpha CGRP, position 25 replaced by X, the acylated L-lysine; Cys2-Cys7 disulfide] | 0.23
16 | ACDTATCVTHXLAGLLSRSGGVVKNNFVPTNVGSKAF (ACDTATCVTHK([AEEA-AEEA-γGlu-C18 diacid])LAGLLSRSGGVVKNNFVPTNVGSKAF; disulfide 2-7; ends not checked) [Acylation Position 11, human alpha CGRP, position 11 replaced by X, the acylated L-lysine; Cys2-Cys7 disulfide] | 0.28
17 | ACDXATCVTHRLAGLLSRSGGVVKNNFVPTNVGSKAF (ACDK([AEEA-AEEA-γGlu-C18 diacid])ATCVTHRLAGLLSRSGGVVKNNFVPTNVGSKAF; disulfide 2-7; ends not checked) [Acylation Position 4, human alpha CGRP, position 4 replaced by X, the acylated L-lysine; Cys2-Cys7 disulfide] | 0.15
